The supplement of paper PMC9170038

Columns and labels:
MS2 coat protein [1] = assay: apparent KD of MS2 coat protein, switch OFF state (with FMN for OFF switches, without FMN for ON switches); designed switch direction (-1 OFF switch, 1 ON switch): -1; higher = weaker reporter binding; details: FMN input: 0 or 200 uM; Eterna round: R93 (includes R88 designs)
Summary of the method: (§1)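 Apparent KD per design is the median of normalised cluster binding-curve fits. Designed RNA switches transcribed on-chip from Illumina sequencing clusters were titrated with SNAP-549-labelled MS2 coat protein in twofold steps from 0.7 or 1.5 nM to 3 µM, with 0.8–1.5 h down to 10–20 min per step. Buffer: 100 mM Tris-HCl pH 7.5, 80 mM KCl, 4 mM MgCl2, without or with constant ligand.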

MS2 coat protein [2] = assay: apparent KD of MS2 coat protein, switch ON state; designed switch direction (-1 OFF switch, 1 ON switch): -1; higher = weaker reporter binding; details: FMN input: 0 or 200 uM; Eterna round: R93 (includes R88 designs)
Summary of the method: as §1

Sequence	apparent KD of MS2 coat protein (MS2 coat protein [1]) [nM]	apparent KD of MS2 coat protein (MS2 coat protein [2]) [nM]
AAAUACCAAGGAUAUACAUGAGGAUCACCCAUGUACAAACCCGUGGAACGGAUCGUUGGUAGAAGGUGGAAAUA [Isleusso]	12.2	13.4
GUGAAGGAAGGAUAUACAAAGGGACGUUAUAAGAGAAGAAGACAUGAGGAUCACCCAUGUAGAAGGUCCAGAUC [Beorteesri]	43.5	25.9
AAAAAGUGAGGAUAUGUCAAAGGUCACGAAAGUGACAAAGGACAGAAGGCACAUGAGGAUCACCCAUGUGAAAA [Fiskers Exclusion 4D1 65% - Early + late G segment 2]	32.3	26.7
AAACCACAUGAGGAUCACCCAUGUUAGGAUAUGCUAUGGAAAUAAAAAAUAAAACAUAGCAGAAGGGACAAAAA [Mat - Exclusion 1 - Eli mod - D35]	19.3	19.7
AAAGUGUGAGGAUAUGUCAAAGGUCACGAAAGUGACAAAGGGCAGAAGGUACAUGAGGAUCACCCAUGUAAAAA [Opal 1]	19.9	24
GAAAAUGGAGGAUAUACGUACAUGUCAAAAGACGUGAAGGGACAUGAGGAUCACCCAUGUAGAAGGCUAAAAAG [Mat - Exclusion 2 - JL mod - D96]	15.4	101
AACUAACAUGAGGAUCACCCAUGUCAGGAUAUGCAAAGAUCGAUCGAACGAUCGAUAAGCAGAAGGGACAAAAA [Amethyst 95]	36.9	23.3
AGAAAACAUGAGGAUCACCCAUGUGAGGAUAUCGAUGUCCAAAAAAAAGUGCGGACCUCGAGAAGGCACAUUGG [Mod of Erbelaed v.3 (favor state 2,lowered kcal by 1)]	51.1	49.5
AUAAUGCGAGGAUAUACAUGAGGAUCACCCAUGUAAAUAAAUAGGAGAGCCACAUUAAGUAGAAGGUGCAUUAA [JR_Exc003_Sub501]	84.7	32.8
AAAAAACAUGAGGAUCACCCAUGUCAGGAUAUUCGAAAAAAAAAAAAAAAAAAAAAAAGGAGAAGGGACGAAAA [DR Excl. 1]	56.8	43.4
AGUUGGCGAGGAUAUACAUGAGGAUCACCCAUGUGAGAGAAAAAAGUGAAAAAGAAAAGUAGAAGGCGCUGACA [73%, Moding Norbert Elias, 3]	195	47.9
AAAAGGGCAGGAUAUGCGUACUCACGGGAAAGCUGGAUGGUACAUGAGGAUCACCCAUGUAGAAGGGCUAAAAA [Dora Explored 18 - Jieux - Exclusion 2]	21.4	32.8
AUAAAGUCAGGAUAUGUAAAAAUAACGAAAGUUAUAAAUAAACAGAAGGGACAUGAGGAUCACCCAUGUGGAAU [Meechl MS2 EX4 62% 3]	75	54.2
AAGAACGUAGGAUAUACAUGAGGAUCACCCAUGUAAAAGAAAGAGGGAAAAGAGAAAAGUAGAAGGACGAAGAA [Cleopatra II]	38.2	26.1
CCCAUGUCAGGAUAUCAGUAGUAAAAAAAAAAAAUUACUACUGAGAAGGGACAUGAGGAUCACCCAUGUCACUU [EX4 320: Super Stable 20]	53.2	74.9
AAGAUCAGAGGAUAUACAUAAGGUGAUGAAAACAUCGCCAAACAUGAGGAUCACCCAUGUAGAAGGCUGAUCAA [JL EX2 1]	231	118
